From US20210063414A1, “METHODS FOR PREVENTING AND/OR TREATING BONE LOSS CONDITIONS BY MODULATING IRISIN” (Dana-Farber Cancer Institute, Inc., priority 2018, published 2021) come the findings set out here.

Common to all, as to test: Crosslinking/co-immunoprecipitation/mass spectrometry (TMT quantitative proteomics) to identify irisin receptors
What all share (assay type): binding

For assay [1], the target named is T1, MLO-Y4 cell surface proteins (Mus musculus, UniProt O35143).
T1 construct: endogenous in cells; host or cells: MLO-Y4
T1 sequence (O35143 26-106): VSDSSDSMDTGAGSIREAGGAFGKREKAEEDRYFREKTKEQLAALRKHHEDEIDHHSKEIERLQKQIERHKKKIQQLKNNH
Conditions: co-precipitated protein Atpif1 (ATIF1_MOUSE). Put shortly:
(§1)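 Relative protein abundance came from 6-plex TMT MS3 quantitation on an Orbitrap Fusion Lumos, after in-gel trypsin digestion of Coomassie-stained SDS-PAGE lanes. Input was a Ni-NTA pulldown (250 mM imidazole elution) of lysates from murine MLO-Y4 cells. These cells were treated on ice with His-tagged irisin or adipsin (10 nM, 20 min) in serum-free medium, then crosslinked with 1.5 mM DTSSP for 30 min.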

The target in assay [2] is T2, MLO-Y4 cell surface proteins (Mus musculus, UniProt Q8BFT2).
T2 construct: endogenous in cells; host or cells: MLO-Y4
T2 sequence (Q8BFT2 1-363): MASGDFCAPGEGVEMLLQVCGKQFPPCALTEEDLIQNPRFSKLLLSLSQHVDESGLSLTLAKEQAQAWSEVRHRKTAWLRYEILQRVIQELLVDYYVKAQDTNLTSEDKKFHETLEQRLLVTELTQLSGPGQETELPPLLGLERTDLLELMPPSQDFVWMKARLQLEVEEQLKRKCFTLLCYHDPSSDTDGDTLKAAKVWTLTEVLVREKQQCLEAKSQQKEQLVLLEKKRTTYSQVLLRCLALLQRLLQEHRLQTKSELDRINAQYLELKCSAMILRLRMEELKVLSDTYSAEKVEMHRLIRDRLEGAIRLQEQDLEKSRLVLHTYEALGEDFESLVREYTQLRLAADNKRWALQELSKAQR
Conditions: co-precipitated protein Haus4 (HAUS4_MOUSE). A digest of the protocol: as §1

The target in assay [3] is T3, MLO-Y4 cell surface proteins (Mus musculus, UniProt E9Q557).
T3 construct: endogenous in cells; host or cells: MLO-Y4
Conditions: co-precipitated protein Dsp (DESP_MOUSE). Put shortly: as §1

The target of assay [4] is T4, MLO-Y4 cell surface proteins (Mus musculus, UniProt Q9Z138).
T4 construct: endogenous in cells; host or cells: MLO-Y4
The conditions noted are these: co-precipitated protein Ror2 (ROR2_MOUSE). A digest of the protocol: as §1

The target of assay [5] is T5, MLO-Y4 cell surface proteins (Mus musculus, UniProt Q9JHS4).
T5 construct: endogenous in cells; host or cells: MLO-Y4
Conditions: co-precipitated protein Clpx (CLPX_MOUSE). Put shortly: as §1

T5 sequence (Q9JHS4 57-634): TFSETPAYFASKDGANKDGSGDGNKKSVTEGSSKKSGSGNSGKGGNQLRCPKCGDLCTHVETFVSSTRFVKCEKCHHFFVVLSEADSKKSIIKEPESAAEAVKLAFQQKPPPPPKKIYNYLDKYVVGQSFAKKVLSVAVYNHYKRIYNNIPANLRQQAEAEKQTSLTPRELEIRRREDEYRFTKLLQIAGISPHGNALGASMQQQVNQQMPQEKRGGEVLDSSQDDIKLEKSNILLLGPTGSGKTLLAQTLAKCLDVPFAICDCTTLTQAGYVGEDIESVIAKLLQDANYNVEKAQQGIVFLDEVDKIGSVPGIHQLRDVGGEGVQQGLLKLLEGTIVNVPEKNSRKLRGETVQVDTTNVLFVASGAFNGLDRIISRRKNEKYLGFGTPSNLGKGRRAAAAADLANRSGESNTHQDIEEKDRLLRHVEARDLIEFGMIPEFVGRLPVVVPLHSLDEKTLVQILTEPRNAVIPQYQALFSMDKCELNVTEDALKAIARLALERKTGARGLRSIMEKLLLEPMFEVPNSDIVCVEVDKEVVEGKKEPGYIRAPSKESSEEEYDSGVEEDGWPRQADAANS
T3 sequence (E9Q557 whole entry): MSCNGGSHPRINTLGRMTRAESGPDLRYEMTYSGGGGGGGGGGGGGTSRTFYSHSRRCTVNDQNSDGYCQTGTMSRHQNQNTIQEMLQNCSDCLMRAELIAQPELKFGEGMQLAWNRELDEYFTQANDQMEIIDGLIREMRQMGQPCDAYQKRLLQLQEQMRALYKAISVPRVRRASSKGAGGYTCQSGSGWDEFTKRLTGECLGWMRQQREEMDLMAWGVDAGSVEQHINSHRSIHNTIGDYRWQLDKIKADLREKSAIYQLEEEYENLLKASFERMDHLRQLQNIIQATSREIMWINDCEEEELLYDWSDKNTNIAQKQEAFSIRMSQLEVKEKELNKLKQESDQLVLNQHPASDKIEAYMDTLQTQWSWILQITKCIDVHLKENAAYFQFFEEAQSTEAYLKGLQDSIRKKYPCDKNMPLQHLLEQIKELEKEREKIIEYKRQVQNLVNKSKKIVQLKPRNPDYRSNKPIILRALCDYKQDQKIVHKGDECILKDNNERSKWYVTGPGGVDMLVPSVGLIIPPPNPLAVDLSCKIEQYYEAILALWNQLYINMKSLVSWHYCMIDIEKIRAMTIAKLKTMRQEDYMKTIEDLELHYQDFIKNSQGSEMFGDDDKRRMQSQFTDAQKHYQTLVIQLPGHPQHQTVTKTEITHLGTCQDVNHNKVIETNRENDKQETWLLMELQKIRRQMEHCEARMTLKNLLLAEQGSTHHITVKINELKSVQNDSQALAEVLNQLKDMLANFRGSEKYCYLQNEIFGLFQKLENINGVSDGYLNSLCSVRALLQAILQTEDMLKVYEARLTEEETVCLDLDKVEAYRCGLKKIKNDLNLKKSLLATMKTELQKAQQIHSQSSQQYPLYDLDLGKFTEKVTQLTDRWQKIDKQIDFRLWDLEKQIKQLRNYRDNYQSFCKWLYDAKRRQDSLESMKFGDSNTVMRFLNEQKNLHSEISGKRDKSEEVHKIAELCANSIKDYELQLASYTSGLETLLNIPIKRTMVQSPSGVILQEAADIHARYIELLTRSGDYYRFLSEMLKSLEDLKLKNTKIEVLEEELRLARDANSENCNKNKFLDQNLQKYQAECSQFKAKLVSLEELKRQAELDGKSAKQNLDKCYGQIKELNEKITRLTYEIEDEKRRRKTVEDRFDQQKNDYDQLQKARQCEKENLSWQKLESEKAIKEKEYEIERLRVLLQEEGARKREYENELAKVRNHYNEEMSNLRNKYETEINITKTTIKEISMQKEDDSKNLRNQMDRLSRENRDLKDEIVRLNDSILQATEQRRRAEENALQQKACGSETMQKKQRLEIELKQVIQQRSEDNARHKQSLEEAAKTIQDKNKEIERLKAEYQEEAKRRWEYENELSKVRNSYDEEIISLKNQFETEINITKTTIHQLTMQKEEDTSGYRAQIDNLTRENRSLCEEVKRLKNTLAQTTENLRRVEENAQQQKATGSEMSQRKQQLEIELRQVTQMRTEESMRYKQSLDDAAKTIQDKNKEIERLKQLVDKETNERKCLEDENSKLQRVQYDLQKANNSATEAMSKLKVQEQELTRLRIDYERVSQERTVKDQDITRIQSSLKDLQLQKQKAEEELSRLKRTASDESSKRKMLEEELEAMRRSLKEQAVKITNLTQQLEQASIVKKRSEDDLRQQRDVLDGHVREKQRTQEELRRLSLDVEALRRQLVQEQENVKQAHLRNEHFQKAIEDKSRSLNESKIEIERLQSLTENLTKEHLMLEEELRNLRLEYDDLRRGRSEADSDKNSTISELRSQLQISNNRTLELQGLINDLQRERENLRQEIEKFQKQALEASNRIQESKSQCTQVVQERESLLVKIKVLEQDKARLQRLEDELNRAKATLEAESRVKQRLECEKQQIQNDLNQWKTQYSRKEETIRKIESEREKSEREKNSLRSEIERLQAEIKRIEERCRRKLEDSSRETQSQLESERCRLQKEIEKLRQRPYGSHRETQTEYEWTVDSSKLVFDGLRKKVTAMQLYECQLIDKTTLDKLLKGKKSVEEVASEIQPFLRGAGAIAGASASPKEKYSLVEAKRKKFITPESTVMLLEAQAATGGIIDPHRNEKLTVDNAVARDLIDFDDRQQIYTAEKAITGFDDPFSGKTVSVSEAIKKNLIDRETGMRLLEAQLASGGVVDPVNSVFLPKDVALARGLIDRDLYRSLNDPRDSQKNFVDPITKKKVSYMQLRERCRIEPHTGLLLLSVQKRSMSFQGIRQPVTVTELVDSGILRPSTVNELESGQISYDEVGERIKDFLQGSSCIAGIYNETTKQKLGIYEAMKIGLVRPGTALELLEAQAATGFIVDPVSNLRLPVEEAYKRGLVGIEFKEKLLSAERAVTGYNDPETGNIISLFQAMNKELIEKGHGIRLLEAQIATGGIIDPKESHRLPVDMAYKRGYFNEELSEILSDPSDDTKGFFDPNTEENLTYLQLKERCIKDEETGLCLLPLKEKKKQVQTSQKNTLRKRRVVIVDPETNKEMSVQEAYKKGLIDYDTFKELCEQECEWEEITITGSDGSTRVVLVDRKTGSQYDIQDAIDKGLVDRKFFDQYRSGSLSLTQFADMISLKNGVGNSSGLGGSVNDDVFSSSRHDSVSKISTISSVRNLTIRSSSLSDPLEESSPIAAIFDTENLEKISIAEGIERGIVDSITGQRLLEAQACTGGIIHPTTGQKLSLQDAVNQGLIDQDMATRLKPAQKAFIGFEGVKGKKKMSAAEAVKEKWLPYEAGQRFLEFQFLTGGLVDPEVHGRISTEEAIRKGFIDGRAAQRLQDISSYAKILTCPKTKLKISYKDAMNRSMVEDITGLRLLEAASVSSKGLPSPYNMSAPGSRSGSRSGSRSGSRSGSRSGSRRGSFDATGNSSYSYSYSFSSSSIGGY
T4 sequence (Q9Z138 34-944): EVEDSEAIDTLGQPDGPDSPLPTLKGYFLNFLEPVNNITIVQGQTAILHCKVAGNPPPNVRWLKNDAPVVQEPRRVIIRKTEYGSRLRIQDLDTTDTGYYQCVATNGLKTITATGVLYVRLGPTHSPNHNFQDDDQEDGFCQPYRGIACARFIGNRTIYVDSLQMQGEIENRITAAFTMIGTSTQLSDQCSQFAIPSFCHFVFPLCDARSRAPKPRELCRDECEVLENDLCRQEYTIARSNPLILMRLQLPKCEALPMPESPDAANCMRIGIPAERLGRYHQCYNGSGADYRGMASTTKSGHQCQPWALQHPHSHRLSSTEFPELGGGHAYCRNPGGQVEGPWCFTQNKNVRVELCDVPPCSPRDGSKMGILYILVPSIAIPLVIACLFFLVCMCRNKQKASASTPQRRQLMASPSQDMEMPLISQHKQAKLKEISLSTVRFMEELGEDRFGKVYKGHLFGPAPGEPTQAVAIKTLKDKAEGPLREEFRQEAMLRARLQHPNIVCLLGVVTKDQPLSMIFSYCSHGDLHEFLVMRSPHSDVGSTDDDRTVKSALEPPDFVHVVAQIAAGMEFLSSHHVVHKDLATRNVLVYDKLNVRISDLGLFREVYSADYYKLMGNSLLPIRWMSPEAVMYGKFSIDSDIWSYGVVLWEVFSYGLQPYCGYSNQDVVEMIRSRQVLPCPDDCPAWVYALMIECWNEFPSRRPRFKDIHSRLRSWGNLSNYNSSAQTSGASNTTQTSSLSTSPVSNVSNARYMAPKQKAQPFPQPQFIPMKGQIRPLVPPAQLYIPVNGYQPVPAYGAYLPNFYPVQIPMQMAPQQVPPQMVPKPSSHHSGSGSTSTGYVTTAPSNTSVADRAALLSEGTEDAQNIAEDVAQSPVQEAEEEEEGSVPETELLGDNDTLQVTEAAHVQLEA

B1: irisin: secreted cleaved form of FNDC5; recombinant human/mouse irisin with C-terminal his tag produced in HEK293 cells (protein)
chain: DSPSAPVNVTVRHLKANSAVVSWDVLEDEVVIGFAISQQKKDVRMLRFIQEVNTTTRSCALWDLEEDTEYIVHVQAISIQGQSPASEPVLFKTPREAEKMASKNKDEVTMKE
modifications: left off: small tags and cut ends
notes: secreted cleaved form of FNDC5; recombinant human/mouse irisin with C-terminal his tag produced in HEK293 cells
Turning to B1, the TMT signal-to-noise ratio in assay [1] was 229.372; in assay [2], 230.984; in assay [3], 2.707; in assay [4], 39.5932; in assay [5], 851.066. Moreover, the “irisin/adipsin TMT signal-to-noise ratio” value in assay [1] is 0.505; in assay [2], 0.446; in assay [3], 0.034; in assay [4], 0.585; in assay [5], 0.561.
